Six molecules from patent US6426335, “Vascular endothelial growth factor (VEGF) nucleic acid ligand complexes” (Gilead Sciences, Inc.) can be followed below.

In series [1] the target is T1, VEGF165 (Homo sapiens, UniProt P15692-4 P15692-4:27-191). Briefly: filter; 37C; Ca2+ dependent. The settings on record: tags: R&D Systems carrier-free, expressed in Sf21 insect cells; chain copies: homodimer (inferred). Here is the method:
(§1) Nucleic Acid Ligands radiolabeled during transcription by incorporation of α-[^32P]-labeled NTPs, or after synthesis using γ-[^32P]-ATP and T4 polynucleotide kinase, were incubated in low concentration (between 20 and 71 pM) with varying concentrations of VEGF or other growth factors at 37° C. for 15 minutes. Incubations were in TBS, PBS, or HEPES-buffered saline (HBS), pH 7.4, with or without the addition of supplemental divalent cations. Samples were passed through prewashed 0.45μ Type HA filters (Millipore) followed by a 5–10 ml wash with binding buffer. Filters were immersed in scintillant and counted to quantitate the amount of protein-bound RNA retained by each filter. The equilibrium dissociation constant (K_D) of Nucleic Acid Ligand binding to a specific protein was calculated from the data points as described in Green et al. (1996) Biochem. 35:14413–14424.

Series [2] addresses T1, VEGF165. Briefly: EMSA; competition EMSA; apparent affinity; VEGF isoform not stated. The settings on record: tags: R&D Systems carrier-free, expressed in Sf21 insect cells; chain copies: homodimer (inferred). Here is the method: The binding affinities of the unmodified Nucleic Acid Ligand (NX213, open circle), its dialkyl glycerol modified analog (NX278, open diamond) and liposomal NX278 (NX278-L, open square), along with the sequence scrambled (sc) controls (scNX213, closed circle; scNX278, closed diamond; and scNX278-L, closed square) were determined by a competition electrophoreticmobility shift assay. NX213 is 5'-TsTsTsTs mAaCaC aCaUrG rAaUmG rGaUmA mGrAaC mGaCaC mGmGmG mGaUmG TsTsTsTsT-3' and scNX213 is (SEQ ID NO:1) 5'-TsTsTsTs mGaUaC mGmGaU mAaCrG mGrAmG aUmGrG rAaCnC mGaUaC mAaCmG TsTsTsTsT-3' (SEQ ID NO:4) ^32P 5=end-labeled NX-213 (1.5 nM) was incubated in binding buffer (phosphate buffered saline with 0.01% human serum albumin) at 37° C. for 20 min in the presence of VEGF (0.33 nM) and competitor oligonucleotide(5 pM-0.33 µM). The ^32p NX-213/VEGF complex was resolved from the free ^32p NX-213 by electrophoresison 8% polyacrylamide gel (19:1 acrylamide:bisacrylamide, Tris-borate, 89 mM, 1 mM EDTA as the running buffer). The intensity of the band corresponding to ^32P NX-213/VEGF complex at varying competitor concentrations was quantitated by phosphorimager analysis. Data normalized for the amount of complex formed in the absence of competitor were fitted by the least squares method to the competition binding equation. […]
A general note: Mobility shift assays separate free from complexed probe on a gel.

Series [3] deals with T1, VEGF165. Briefly: described previously, quoted for comparison. The settings on record: tags: R&D Systems carrier-free, expressed in Sf21 insect cells; chain copies: homodimer (inferred); label: 32P 5' end.
Series [4] addresses T1, VEGF165. As to the kind of experiment: filter; 37C. The settings on record: tags: R&D Systems carrier-free, expressed in Sf21 insect cells; chain copies: homodimer (inferred). The method, then:
as §1

T1 sequence (P15692 other isoform, or with tags, fused parts or gaps): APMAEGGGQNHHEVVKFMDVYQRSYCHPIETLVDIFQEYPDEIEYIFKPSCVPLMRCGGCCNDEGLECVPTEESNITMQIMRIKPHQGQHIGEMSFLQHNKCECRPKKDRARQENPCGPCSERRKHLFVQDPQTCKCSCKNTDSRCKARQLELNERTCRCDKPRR

B1: t44 (ssRNA)
RNA: GCGGAAUCAGUGAAUGCUUAUACAUCCGCT
modifications: 2'-F pyrimidines; 3'-3' dT cap (N30) [30 (3'-3' dT cap); all C/U 2'-F]
In the series with VEGF165 [1], B1 returned a Kd of 0.01 nM.

B2: NX278-Liposome (mixed)
mixed: TTTTACCCUGAUGGUAGACGCCGGGGUGTTTTT
modifications: as NX278, embedded in DSPC:cholesterol liposome
As to B2, the binding signal in the series with VEGF165 [2] worked out at 3 fold lower than NX278.

B3: NX213 (mixed)
mixed: TTTTACCCUGAUGGUAGACGCCGGGGUGTTTTT
modifications: PS DNA T at 1-4 and 29-33; 2'-OMe at 5,13,16,17,20,23-26,28; 2'-NH2 at 6-9,12,15,19,21,22,27
Molecule B3 had a Kd with VEGF165 [3] of 0.14 nM.

B4: t2d (ssRNA)
RNA: AACCGAUGGAAUUUUUGGACGCUT
modifications: 2'-F pyrimidines; 3'-3' dT cap (N24) [24 (3'-3' dT cap); all C/U 2'-F]
As for B4, binding in the series with VEGF165 [4] was characterised by a dissociation constant (Kd) of 20 nM.

B5: t44c (ssRNA)
RNA: GAAUCAGUGAAUGCUUAUACAUCT
modifications: 2'-F pyrimidines; 3'-3' dT cap (N24) [24 (3'-3' dT cap); all C/U 2'-F]
Take B5: the Kd with VEGF165 [4] worked out at 2 nM.

B6: t2c (ssRNA)
RNA: GAACCGAUGGAAUUUUUGGACGCUCT
modifications: 2'-F pyrimidines; 3'-3' dT cap (N26) [26 (3'-3' dT cap); all C/U 2'-F]
B6: the Kd with VEGF165 [4] came to 0.2 nM.

One may read the Kd as the concentration at which binding is half-saturated.
